Series [1] concerns the molecule itself. In words: crystal structure.
Series [2] deals with T1, alpha subunit of mature G172D Flavobacterium glycosylasparaginase (Flavobacterium, UniProt Q47898 46-196).
T1 sequence (looked up): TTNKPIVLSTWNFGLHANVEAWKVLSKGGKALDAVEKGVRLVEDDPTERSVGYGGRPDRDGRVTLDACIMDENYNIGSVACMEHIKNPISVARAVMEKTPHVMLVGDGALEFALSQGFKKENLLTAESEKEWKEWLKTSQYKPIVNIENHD
In words: crystal structure.

The values that follow come from PMC5504686 (Molecular genetics and metabolism, 2017).

B1: mature form of the G172D mutant of Flavobacterium glycosylasparaginase (one alpha and one beta chain) (complex)
chain 1: TTNKPIVLSTWNFGLHANVEAWKVLSKGGKALDAVEKGVRLVEDDPTERSVGYGGRPDRDGRVTLDACIMDENYNIGSVACMEHIKNPISVARAVMEKTPHVMLVGDGALEFALSQGFKKENLLTAESEKEWKEWLKTSQYKPIVNIENHD
chain 2: TIGMIALDAQGNLSGACTTSDMAYKMHGRVGDSPIIGAGLFVDNEIGAATATGHGEEVIRTVGTHLVVELMNQGRTPQQACKEAVERIVKIVNRRGKNLKDIQVGFIALNKKGEYGAYCIQDGFNFAVHDQKGNRLETPGFALK
As for B1, in series [1], the binding result is “binds”.

B2: beta subunit of mature G172D Flavobacterium glycosylasparaginase (domain or fragment, UniProt Q47898 197-340, looked up)
chain: TIGMIALDAQGNLSGACTTSDMAYKMHGRVGDSPIIGAGLFVDNEIGAATATGHGEEVIRTVGTHLVVELMNQGRTPQQACKEAVERIVKIVNRRGKNLKDIQVGFIALNKKGEYGAYCIQDGFNFAVHDQKGNRLETPGFALK
For B2, the binding result in series [2] is on record as “binds”.
